Values joined by “and” are separate entries in the source; they are usually repeats but may differ in a detail not shown here. Equal values may be shown once.
Assays:
non-reducing PAGE = target: the molecule itself; experiment: non-reducing PAGE
[1] = target: the molecule itself; experiment: PAGE under denaturing, non-reducing conditions

| Protein | binding result (non-reducing PAGE) | stoichiometry N (non-reducing PAGE) | stoichiometry N [1] |
| --- | --- | --- | --- |
| Granulin-5 (GRN-5) (natural protein, UniProt P28799 364-417, looked up) VPCDNVSSCPSSDTCCQLTSGEWGCCPIPEAVCCSDHQHCCPQGYTCVAEGQCQ | binds | – | – |
| Granulin-3 (GRN-3) (natural protein, UniProt P28799 206-261, looked up) VMCPDARSRCPDGSTCCELPSGKWGCCPMPNATCCSDHLHCCPQDTVCDLIQSKCL | – | 2 and 3 | ≤ 4 |

— PMC7933101 (Proteins, 2020)
